Assay results: patent US20260209322A1 (HAMAD BIN KHALIFA UNIVERSITY, published 2026)

Legend:
Assay in all cases: filter retardation assay
[1] = target: mouse α-synuclein (mouse, UniProt O55042 1-140)
[2] = target: β-synuclein (UniProt Q16143 1-134)
[3] = target: γ-synuclein (UniProt O76070 1-127)
Chain of γ-synuclein (O76070 whole entry): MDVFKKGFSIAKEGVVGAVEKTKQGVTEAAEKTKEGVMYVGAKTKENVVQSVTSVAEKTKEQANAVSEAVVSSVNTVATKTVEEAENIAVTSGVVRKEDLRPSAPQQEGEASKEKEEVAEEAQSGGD

Chain of β-synuclein (Q16143 whole entry): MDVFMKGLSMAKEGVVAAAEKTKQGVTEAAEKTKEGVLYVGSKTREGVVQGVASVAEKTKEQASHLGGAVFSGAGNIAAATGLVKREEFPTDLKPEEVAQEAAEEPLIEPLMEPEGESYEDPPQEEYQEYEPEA

B1: monoclonal antibody 4B1 produced by hybridoma 4B1 (ATCC Patent Deposit Number PTA-127017) (antibody, mouse IgG1, kappa, V domains shown)
VH: EVKLVESGGGLVQPGGSLKLSCAASGITFSSYTMSWVRQTPEKRLEWVGYISNGGGRTYYPDTVKGRFTISRDNAKNTLYLQMSSLKSEDTAMYYCARQITTAMGYYYAMDYWGQGTSVTVSS
VL: DVVMTQTPLSLPVSLGDQASISCRSSQSLVHSNGNTYLHWYLQKPGQSPKLLISKVSNRFSGVPDRFSGSGSGTDFTLKISRVEAEDLGVYFCSQSTHVPLTFGAGTKLELKR
notes: also called mAb 4B1; 4E1
Does B1 bind [1]?
Result: binds

Does B1 bind [2]?
Result: no binding

Does B1 bind [3]?
Result: no binding
